Results taken from patent US20060121489 (Board of Regents, The University of Texas System, published 2006).

Experiments:
Details in all cases: chain copies: 2 (homodimer, stated)
[1] = molecular target: T1, NF-kB p65 (RelA) homodimer (UniProt Q04206 Q04206:1-551); assay: EMSA; p65 homodimer
NF-kB p50 homodimer [2] = molecular target: T2, NF-kB p50 homodimer (UniProt P19838 P19838:1-433); assay: EMSA; stated as sub-nM
NF-kB p50 homodimer [3] = molecular target: T2, NF-kB p50 homodimer; assay: competition; inhibits p65/p65 and p50/p50 equally; nonspecific stickiness
[4] = molecular target: T1, NF-kB p65 (RelA) homodimer; assay: as above

T2 sequence (P19838 1-433, one chain of several): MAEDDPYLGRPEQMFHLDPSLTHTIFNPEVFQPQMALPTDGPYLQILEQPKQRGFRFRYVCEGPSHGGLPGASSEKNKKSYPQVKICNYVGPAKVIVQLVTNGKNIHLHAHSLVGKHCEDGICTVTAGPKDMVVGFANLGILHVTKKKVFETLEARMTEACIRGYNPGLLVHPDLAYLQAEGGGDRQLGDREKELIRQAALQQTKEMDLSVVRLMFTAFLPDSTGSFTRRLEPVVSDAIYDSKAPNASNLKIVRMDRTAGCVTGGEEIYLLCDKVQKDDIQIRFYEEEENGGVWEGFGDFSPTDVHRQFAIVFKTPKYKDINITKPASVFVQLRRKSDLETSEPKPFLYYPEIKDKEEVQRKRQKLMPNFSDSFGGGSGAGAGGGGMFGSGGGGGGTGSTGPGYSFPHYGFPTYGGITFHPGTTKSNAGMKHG
T1 sequence (Q04206 whole entry, one chain of several): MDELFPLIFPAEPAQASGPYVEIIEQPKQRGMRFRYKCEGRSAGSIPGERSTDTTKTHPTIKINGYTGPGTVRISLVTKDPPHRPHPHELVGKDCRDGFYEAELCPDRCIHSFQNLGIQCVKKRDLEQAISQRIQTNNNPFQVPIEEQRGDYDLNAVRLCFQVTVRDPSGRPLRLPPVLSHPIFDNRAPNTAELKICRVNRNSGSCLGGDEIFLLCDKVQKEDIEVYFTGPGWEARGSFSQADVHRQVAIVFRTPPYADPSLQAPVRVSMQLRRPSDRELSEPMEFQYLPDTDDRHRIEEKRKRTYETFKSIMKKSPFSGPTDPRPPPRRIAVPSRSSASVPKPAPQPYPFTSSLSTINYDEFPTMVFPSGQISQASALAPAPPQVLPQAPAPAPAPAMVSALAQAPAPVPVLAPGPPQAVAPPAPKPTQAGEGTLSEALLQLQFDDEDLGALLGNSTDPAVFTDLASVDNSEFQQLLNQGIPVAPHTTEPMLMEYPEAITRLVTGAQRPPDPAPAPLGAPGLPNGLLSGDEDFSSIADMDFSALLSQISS

B1: XBY-6 (dsDNA)
DNA 1: CCAGGAGATTCCAC
DNA 2: GTGGAATCTCCTGG
modifications: 6 phosphorodithioate (S2) linkages: 5'-…2TS2CCAC-3' / 3'-GGS2TCCS2TCS2TAAGGS2TG-5'
[1]
  Kd: 1.4 nM
NF-kB p50 homodimer [2]
  Kd: < 1 nM

B2: CK-1 42-mer full phosphorothioate (dsDNA)
DNA 1: CCAGGAGATTCCACCCAGGAGATTCCACCCAGGAGATTCCAC
DNA 2: GTGGAATCTCCTGGGTGGAATCTCCTGGGTGGAATCTCCTGG
modifications: full PS
NF-kB p50 homodimer [3]
  binding result: binds
[4]
  binding result: binds
